FireProtDB
Several values for one entry are separate records, joined by “and”; a condition that tells them apart may be missing. Equal entries are not always repeated.

B1: Beta-xylanase, O68541 (parent)
chain: MNLSRRQLLALTSAGIAMGQASKLAAATKAAEQTGLKSAYKDNFLIGAALNATIASGADERLNTLIAKEFNSITPENCMKWGVLRDAQGQWNWKDADAFVAFGTKHNLHMVGHTLVWHSQIHDEVFKNADGSYISKAALQKKMEEHITTLAGRYKGKLAAWDVVNEAVGDDLKMRDSHWYKIMGDDFIYNAFTLANEVDPKAHLMYNDYNIERTGKREATVEMIERLQKRGMPIHGLGIQGHLGIDTPPIAEIEKSIIAFAKLGLRVHFTELDVDVLPSVWELPVAEVSTRFEYKPERDPYTKGLPQEMQDKLAKRYEDLFKLFIKHSDKIDRATFWGVSDDASWLNGFPIPGRTNYPLLFDRKLQPKDAYFRLLDLKR
B2: Membrane-associated guanylate kinase, WW and PDZ domain-containing protein 1, Q96QZ7 (parent)
chain: MSKVIQKKNHWTSRVHECTVKRGPQGELGVTVLGGAEHGEFPYVGAVAAVEAAGLPGGGEGPRLGEGELLLEVQGVRVSGLPRYDVLGVIDSCKEAVTFKAVRQGGRLNKDLRHFLNQRFQKGSPDHELQQTIRDNLYRHAVPCTTRSPREGEVPGVDYNFLTVKEFLDLEQSGTLLEVGTYEGNYYGTPKPPSQPVSGKVITTDALHSLQSGSKQSTPKRTKSYNDMQNAGIVHAENEEEDDVPEMNSSFTADSGEQEEHTLQETALPPVNSSIIAAPITDPSQKFPQYLPLSAEDNLGPLPENWEMAYTENGEVYFIDHNTKTTSWLDPRCLNKQQKPLEECEDDEGVHTEELDSELELPAGWEKIEDPVYGIYYVDHINRKTQYENPVLEAKRKKQLEQQQQQQQQQQQQQQQQQQQQTEEWTEDHSALVPPVIPNHPPSNPEPAREVPLQGKPFFTRNPSELKGKFIHTKLRKSSRGFGFTVVGGDEPDEFLQIKSLVLDGPAALDGKMETGDVIVSVNDTCVLGHTHAQVVKIFQSIPIGASVDLELCRGYPLPFDPDDPNTSLVTSVAILDKEPIIVNGQETYDSPASHSSKTGKVNGMKDARPSSPADVASNSSHGYPNDTVSLASSIATQPELITVHIVKGPMGFGFTIADSPGGGGQRVKQIVDSPRCRGLKEGDLIVEVNKKNVQALTHNQVVDMLVECPKGSEVTLLVQRGGLPVPKKSPKSQPLERKDSQNSSQHSVSSHRSLHTASPSHSTQVLPEFPPAEAQAPDQTDSSGQKKPDPFKIWAQSRSMYENRPMSPSPASGLSKGEREREINSTNFGECPIPDYQEQDIFLWRKETGFGFRILGGNEPGEPIYIGHIVPLGAADTDGRLRSGDELICVDGTPVIGKSHQLVVQLMQQAAKQGHVNLTVRRKVVFAVPKTENEVPSPASSHHSSNQPASLTEEKRTPQGSQNSLNTVSSGSGSTSGIGSGGGGGSGVVSTVVQPYDVEIRRGENEGFGFVIVSSVSRPEAGTTFAGNACVAMPHKIGRIIEGSPADRCGKLKVGDRILAVNGCSITNKSHSDIVNLIKEAGNTVTLRIIPGDESSNATLLTNAEKIATITTTHTPSQQGTQETRNTTKPKQESQFEFKAPQATQEQDFYTVELERGAKGFGFSLRGGREYNMDLYVLRLAEDGPAERCGKMRIGDEILEINGETTKNMKHSRAIELIKNGGRRVRLFLKRGDGSVPEYDPSSDRHGPATGPQGVPEVRAGPDRRQHPSLESSYPPDLHKSSPHGEKRAHARDPKGSREYSRQPNEHHTWNGTSRKPDSGACRPKDRAPEGRRDAQAERAAAANGPKRRSPEKRREGTRSADNTLERREKHEKRRDVSPERRRERSPTRRRDGSPSRRRRSLERLLEQRRSPERRRGGSPERRAKSTDRRRARSPERRRERSLDKRNREDRASHREREEANLKQDAGRSSRHPPEQRRRPYKECSTDLSI
B3: Dihydrofolate reductase type 2, P00383 (parent)
chain: MERSSNEVSNPVAGNFVFPSNATFGMGDRVRKKSGAAWQGQIVGWYCTNLTPEGYAVESEAHPGSVQIYPVAALERIN
B4: V92L, O26594 (parent)
chain: MRCAFMKKYILIVMLALMVAGCVSEDGNYTYNEGVQDSNVDNPVNDSWTSDSQDKVNDTAEKKSSYEASGSCYHVVDGDTIDVEGVGRIRLVGVNTPERGQPGYREAKDFVKSMCLGRTVQLDIDDAKRHDRYGRVLAVVYVDGVNLNRELLRRGYAEVMYIPPSEFNPYGWT
B5: Collagen alpha-1(XVIII) chain, P39060 (parent)
chain: MAPYPCGCHILLLLFCCLAAARANLLNLNWLWFNNEDTSHAATTIPEPQGPLPVQPTADTTTHVTPRNGSTEPATAPGSPEPPSELLEDGQDTPTSAESPDAPEENIAGVGAEILNVAKGIRSFVQLWNDTVPTESLARAETLVLETPVGPLALAGPSSTPQENGTTLWPSRGIPSSPGAHTTEAGTLPAPTPSPPSLGRPWAPLTGPSVPPPSSGRASLSSLLGGAPPWGSLQDPDSQGLSPAAAAPSQQLQRPDVRLRTPLLHPLVMGSLGKHAAPSAFSSGLPGALSQVAVTTLTRDSGAWVSHVANSVGPGLANNSALLGADPEAPAGRCLPLPPSLPVCGHLGISRFWLPNHLHHESGEQVRAGARAWGGLLQTHCHPFLAWFFCLLLVPPCGSVPPPAPPPCCQFCEALQDACWSRLGGGRLPVACASLPTQEDGYCVLIGPAAERISEEVGLLQLLGDPPPQQVTQTDDPDVGLAYVFGPDANSGQVARYHFPSLFFRDFSLLFHIRPATEGPGVLFAITDSAQAMVLLGVKLSGVQDGHQDISLLYTEPGAGQTHTAASFRLPAFVGQWTHLALSVAGGFVALYVDCEEFQRMPLARSSRGLELEPGAGLFVAQAGGADPDKFQGVIAELKVRRDPQVSPMHCLDEEGDDSDGASGDSGSGLGDARELLREETGAALKPRLPAPPPVTTPPLAGGSSTEDSRSEEVEEQTTVASLGAQTLPGSDSVSTWDGSVRTPGGRVKEGGLKGQKGEPGVPGPPGRAGPPGSPCLPGPPGLPCPVSPLGPAGPALQTVPGPQGPPGPPGRDGTPGRDGEPGDPGEDGKPGDTGPQGFPGTPGDVGPKGDKGDPGVGERGPPGPQGPPGPPGPSFRHDKLTFIDMEGSGFGGDLEALRGPRGFPGPPGPPGVPGLPGEPGRFGVNSSDVPGPAGLPGVPGREGPPGFPGLPGPPGPPGREGPPGRTGQKGSLGEAGAPGHKGSKGAPGPAGARGESGLAGAPGPAGPPGPPGPPGPPGPGLPAGFDDMEGSGGPFWSTARSADGPQGPPGLPGLKGDPGVPGLPGAKGEVGADGVPGFPGLPGREGIAGPQGPKGDRGSRGEKGDPGKDGVGQPGLPGPPGPPGPVVYVSEQDGSVLSVPGPEGRPGFAGFPGPAGPKGNLGSKGERGSPGPKGEKGEPGSIFSPDGGALGPAQKGAKGEPGFRGPPGPYGRPGYKGEIGFPGRPGRPGMNGLKGEKGEPGDASLGFGMRGMPGPPGPPGPPGPPGTPVYDSNVFAESSRPGPPGLPGNQGPPGPKGAKGEVGPPGPPGQFPFDFLQLEAEMKGEKGDRGDAGQKGERGEPGGGGFFGSSLPGPPGPPGPPGPRGYPGIPGPKGESIRGQPGPPGPQGPPGIGYEGRQGPPGPPGPPGPPSFPGPHRQTISVPGPPGPPGPPGPPGTMGASSGVRLWATRQAMLGQVHEVPEGWLIFVAEQEELYVRVQNGFRKVQLEARTPLPRGTDNEVAALQPPVVQLHDSNPYPRREHPHPTARPWRADDILASPPRLPEPQPYPGAPHHSSYVHLRPARPTSPPAHSHRDFQPVLHLVALNSPLSGGMRGIRGADFQCFQQARAVGLAGTFRAFLSSRLQDLYSIVRRADRAAVPIVNLKDELLFPSWEALFSGSEGPLKPGARIFSFDGKDVLRHPTWPQKSVWHGSDPNGRRLTESYCETWRTEAPSATGQASSLLGGRLLGQSAASCHHAYIVLCIENSFMTASK

Variants of: B1
Conditions: Cellvibrio mixtus; pH 7.5; Thermal; DSC; MOPS 20 mM; CaCl2 1 mM; reversible: No; structure 1UR1; whole UniProt chain shown

Variant | Tm | change of melting temperature, mutant - wild type (higher = more stable)
A334V | 62.1 °C | 3.5 °C
A334V G348D | 66.6 °C | 8 °C
G348D | 64.6 °C | 6 °C

Variants of: B2
Conditions: Homo sapiens; pH 7; Thermal; CD; Tris-HCl 20 mM; NaCl 100 mM; structure 2ZAJ; whole UniProt chain shown

Variant | unfolding enthalpy (calorimetric) | unfolding enthalpy (van 't Hoff)
D370S | 60.2 kJ/mol and 38.3 kJ/mol | 39.2 kJ/mol and 38.3 kJ/mol

Variants of: B3
Conditions: Escherichia coli; pH 5; 22 °C; GdnHCl; CD; phosphate 10 mM; structure 1VIE; whole UniProt chain shown

Variant | unfolding free energy
W38F | 64 kJ/mol and 65.3 kJ/mol
W45F | 56.9 kJ/mol and 53.1 kJ/mol

Variants of: B4
Conditions: Methanothermobacter thermautotrophicus (strain ATCC 29096 / DSM 1053 / JCM 10044 / NBRC 100330 / Delta H); pH 7; 20 °C; GdnHCl; Fluorescence; Sodium phosphate sodium chloride 25 mM 100 mM; whole UniProt chain shown

Variant | ddG of mutation (higher = less stable) | denaturant m value | denaturant midpoint (higher = more stable) | unfolding free energy
V92L | 4.6 kJ/mol | 1.03 kcal/mol/M | 0.2 M | 5.44 kJ/mol

Variants of: B5
Conditions: Homo sapiens; pH 7.4; 20 °C; GdnHCl; Fluorescence; Tris-HCl 5 mM; structure 1BNL; whole UniProt chain shown

Variant | denaturant m value | denaturant midpoint (higher = more stable) | unfolding free energy
D1647A | 2.86 kcal/mol/M and 1.57 kcal/mol/M | 1.79 M | 21.4 kJ/mol and 11.8 kJ/mol
